Earlier results, collected in patent US10822386B2, “Insulin analogues with enhanced stability and reduced mitogenicity” (CASE WESTERN RESERVE UNIVERSITY, priority 2014, dated 2020).

Legend:
[1] = substitution of His^B10 by Asp, versus wild-type
[2] = target: insulin receptor (Homo sapiens, UniProt P06213); details: versus wild-type insulin
[3] = system: isolated adipocytes
[4] = system: neoplastic cell lines (including a cell line derived from a human breast cancer)
[5] = system: Sprague-Dawley rats; details: chronic treatment, relative to wild-type insulin

affinity for the insulin receptor [2]: enhances the affinity
Substance: Asp^B10-insulin
thermodynamic stability of the zinc-free insulin monomer [1]: augment the thermodynamic stability | potency to stimulate lipogenesis [3]: augments in parallel its potency | mitogenicity in cell culture [4]: increased mitogenicity | incidence of mammary tumors [5]: excess incidence of mammary tumors
